# Results from CN114028562A (JIANGSU QYUNS BIOMEDICAL CO LTD, dated 2022).
# B1: Tezepelumab (antibody, V domains shown)
# VH: QMQLVESGGGVVQPGRSLRLSCAASGFTFRTYGMHWVRQAPGKGLEWVAVIWYDGSNKHYADSVKGRFTITRDNSKNTLNLQMNSLRAEDTAVYYCARAPQWELVHEAFDIWGQGTMVTVSS
# VL: SYVLTQPPSVSVAPGQTARITCGGNNLGSKSVHWYQQKPGQAPVLVVYDDSDRPSWIPERFSGSNSGNTATLTISRGEAGDEADYYCQVWDSSSDHVVFGGGTKLTVLG
# B2: QX008N(HZD8G2-57) (antibody, V domains shown)
# VH: EVQLVESGGGLVQPGGSLRLSCAASGFSLSSYYMSWVRQAPGKGLEWVGFISYGGSAYHATWAQGRFTISKDNSKNTLYLQMNSLRAEDTAVYYCAREFRSMTYGAEWGIWGQGTLVTVSS
# VL: AYQMTQSPSSVSASVGDRVTITCQASESIYDTLAWYQQKPGKAPKLLIYSASSLASGVPSRFSGSGSGTDFTLTISSLQPEDFATYYCQQGYTMPDVDKNPFGGGTKVEIKR
# Experiments:
# [1] = biological target: 食蟹猴TSLP (cynomolgus monkey, UniProt A0A7N9CAT7 29-159); experiment: cell-based or functional assay
# [2] = biological target: T1, 人胸腺基质淋巴细胞生成素(Human Thymic Stromal Lymphopoietin, TSLP) (human, UniProt Q969D9 29-159); experiment: cell-based or functional assay
# [3] = biological target: T1, 人胸腺基质淋巴细胞生成素(Human Thymic Stromal …); experiment: SPR, Biacore T200, 25°C, antibody captured on Protein A chip, TSLP as analyte, 1:1 model, mean of three runs
# 食蟹猴TSLP, sequence (A0A7N9CAT7 entry or part of it): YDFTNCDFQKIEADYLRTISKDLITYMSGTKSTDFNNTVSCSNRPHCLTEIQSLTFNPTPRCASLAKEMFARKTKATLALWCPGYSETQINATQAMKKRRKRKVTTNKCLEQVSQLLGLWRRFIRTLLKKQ
Binder,"IC50, inhibition of cynomolgus TSLP-induced STAT5 phosphorylation in SW756-STAT5-Luciferase reporter cells [1] [ng/mL]","IC50, inhibition of human TSLP-induced STAT5 phosphorylation in SW756-STAT5-Luciferase reporter cells [2] [ng/mL]","IC50, inhibition of human TSLP-induced TARC(CCL17) release from human PBMC [2] [ng/mL]","IC50, inhibition of human TSLP-induced TARC(CCL17) release from human whole blood [2] [ng/mL]",Kd [3] [pM],koff [3] [s⁻¹],kon [3] [M⁻¹ s⁻¹]
B1,1.88,,,,,,
B2,0.889,0.837,77.1,0.839,17.5,2.99e-05,1.74e+06
